Data on one molecule can be found in publication PMC6698656, “Structural insights into dimethylation of 12S rRNA by TFB1M: indispensable role in translation of mitochondrial genes and mitochondrial function”.

For the series, the target named is hsTFB1M (Homo sapiens, UniProt Q8WVM0 28-346). In words: X-ray crystallography; no SAM (binary complex), 3.0 A; EMSA: 50 mM Tris-HCl pH 8.0, 25 mM NaCl, 100 nM RNA, TFB1M 0-2 mM as printed (legend suggests uM), 37 C 30 min; 6% native PAGE, 0.5x TBE. Conditions: protein: recombinant; tags: His6-MBP N-terminal, removed by TEV; hairpin. For orientation: Mobility shift assays separate free from complexed probe on a gel.
hsTFB1M, sequence (Q8WVM0 28-346): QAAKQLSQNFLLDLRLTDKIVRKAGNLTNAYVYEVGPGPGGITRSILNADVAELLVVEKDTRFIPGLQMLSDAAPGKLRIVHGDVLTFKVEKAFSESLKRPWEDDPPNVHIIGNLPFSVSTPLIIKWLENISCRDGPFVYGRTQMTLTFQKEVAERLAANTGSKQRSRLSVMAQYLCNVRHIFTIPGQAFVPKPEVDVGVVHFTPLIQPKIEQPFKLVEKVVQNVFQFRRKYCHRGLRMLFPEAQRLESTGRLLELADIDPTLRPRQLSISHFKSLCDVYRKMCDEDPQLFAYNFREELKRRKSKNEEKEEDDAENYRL

B1: h45 RNA (crystal) (structured_RNA)
RNA: GGUAAGUGUACUGGAAAGUGCACUUGCC
As for B1, the binding result is “binds”.
